Results from publication PMC3930447.

Biological target: GST-Dip1 (S. pombe) (S. pombe) (UniProt O74771)
Experiment: pull-down

Sequence of UniProt O74771 (O74771 whole entry): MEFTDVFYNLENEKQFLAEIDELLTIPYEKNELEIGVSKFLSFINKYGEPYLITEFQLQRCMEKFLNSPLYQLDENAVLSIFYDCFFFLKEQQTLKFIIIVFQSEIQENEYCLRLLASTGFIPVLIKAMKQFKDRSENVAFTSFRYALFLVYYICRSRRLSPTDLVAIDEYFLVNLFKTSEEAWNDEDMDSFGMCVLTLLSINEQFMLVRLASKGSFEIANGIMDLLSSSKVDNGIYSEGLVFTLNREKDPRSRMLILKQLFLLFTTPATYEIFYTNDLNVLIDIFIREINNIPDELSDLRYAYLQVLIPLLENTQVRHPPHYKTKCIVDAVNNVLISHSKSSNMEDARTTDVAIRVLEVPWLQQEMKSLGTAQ

percent pulled down: 20%
Substance: S. pombe Arp2/3 complex (from UniProt Q9UUJ1 1-390)
